From PMC4797271, “The quorum-sensing regulator ComA from Bacillus subtilis activates transcription using topologically distinct DNA motifs”
Residue numbers refer to the chain shown, from its start. Names may count otherwise.

Experiments:
ComA [1] = biological target: T1, ComA (Bacillus subtilis, UniProt P14204 1-214); assay: EMSA; EMSA: 10 mM HEPES pH 7.6, 2 mM MgCl2, 0.1 mM EDTA, 200 mM KCl, 5 mM DTT, 10% glycerol; 10 ng DNA in 15 ul, 20 min, room temperature; conditions: protein: recombinant; tags: N-terminal His6 (from expression primer); chain copies: 2; label: 5' biotin on strand 1; blunt
T1 sequence: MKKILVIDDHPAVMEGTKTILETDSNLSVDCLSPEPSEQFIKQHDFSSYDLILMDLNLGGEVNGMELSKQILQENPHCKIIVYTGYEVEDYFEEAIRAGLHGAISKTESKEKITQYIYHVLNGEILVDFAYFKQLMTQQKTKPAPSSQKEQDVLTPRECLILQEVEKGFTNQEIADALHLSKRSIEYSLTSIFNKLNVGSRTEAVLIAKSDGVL

[2] = biological target: T2, ComA;RNA polymerase alpha subunit (Bacillus subtilis;Bacillus subtilis, UniProt P14204;P20429 1-214;1-314, |); assay: EMSA; supershift; EMSA: 10 mM HEPES pH 7.6, 2 mM MgCl2, 0.1 mM EDTA, 200 mM KCl, 5 mM DTT, 10% glycerol; 10 ng DNA in 15 ul, 20 min, room temperature; conditions: protein: recombinant;recombinant; tags: N-terminal His6 (from expression primer);N-terminal His6 (from expression primer); label: 5' biotin on strand 1; blunt
T2 sequence 1: T1 sequence
T2 sequence 2: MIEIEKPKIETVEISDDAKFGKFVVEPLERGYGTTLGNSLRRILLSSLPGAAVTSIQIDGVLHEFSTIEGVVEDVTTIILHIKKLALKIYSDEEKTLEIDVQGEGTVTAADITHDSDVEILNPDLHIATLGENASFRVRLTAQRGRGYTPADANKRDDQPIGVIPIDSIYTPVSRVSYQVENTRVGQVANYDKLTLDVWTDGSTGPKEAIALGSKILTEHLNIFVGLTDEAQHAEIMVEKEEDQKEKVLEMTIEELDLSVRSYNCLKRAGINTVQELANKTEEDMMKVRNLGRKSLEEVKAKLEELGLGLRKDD

ComA;sigma factor sigmaA [3] = biological target: T3, ComA;sigma factor sigmaA (Bacillus subtilis;Bacillus subtilis, UniProt P14204;P06224 1-214;1-371, |); assay: EMSA; supershift, lower mobility than PIR; EMSA: 10 mM HEPES pH 7.6, 2 mM MgCl2, 0.1 mM EDTA, 200 mM KCl, 5 mM DTT, 10% glycerol; 10 ng DNA in 15 ul, 20 min, room temperature; conditions: protein: recombinant;recombinant; tags: N-terminal His6 (from expression primer);N-terminal His6 (from expression primer); chain copies: 2;1; label: 5' biotin on strand 1; blunt
ComA [4] = biological target: T1, ComA; assay: EMSA; complex at 1.2 uM or more; affinity similar to PIR; EMSA: 10 mM HEPES pH 7.6, 2 mM MgCl2, 0.1 mM EDTA, 200 mM KCl, 5 mM DTT, 10% glycerol; 10 ng DNA in 15 ul, 20 min, room temperature; conditions: protein: recombinant; tags: N-terminal His6 (from expression primer); chain copies: 2; label: 5' biotin on strand 1; blunt
ComA [5] = biological target: T1, ComA; assay: EMSA; EMSA: 10 mM HEPES pH 7.6, 2 mM MgCl2, 0.1 mM EDTA, 200 mM KCl, 5 mM DTT, 10% glycerol; 10 ng DNA in 15 ul, 20 min, room temperature; conditions: protein: recombinant; tags: N-terminal His6 (from expression primer); chain copies: 2; label: 5' biotin on strand 1; blunt; remark: listed apart in the source
ComA [6] = biological target: T1, ComA; assay: as above; conditions: protein: recombinant; tags: N-terminal His6 (from expression primer); chain copies: 2; label: 5' biotin on strand 1; blunt; remark: listed apart in the source
[7] = biological target: T2, ComA;RNA polymerase alpha subunit; assay: EMSA; supershift, same alpha concentration as PDR; EMSA: 10 mM HEPES pH 7.6, 2 mM MgCl2, 0.1 mM EDTA, 200 mM KCl, 5 mM DTT, 10% glycerol; 10 ng DNA in 15 ul, 20 min, room temperature; conditions: protein: recombinant;recombinant; tags: N-terminal His6 (from expression primer);N-terminal His6 (from expression primer); label: 5' biotin on strand 1; blunt
ComA;sigma factor sigmaA [8] = biological target: T3, ComA;sigma factor sigmaA; assay: EMSA; supershift, same sigmaA concentration as PDR; EMSA: 10 mM HEPES pH 7.6, 2 mM MgCl2, 0.1 mM EDTA, 200 mM KCl, 5 mM DTT, 10% glycerol; 10 ng DNA in 15 ul, 20 min, room temperature; conditions: protein: recombinant;recombinant; tags: N-terminal His6 (from expression primer);N-terminal His6 (from expression primer); chain copies: 2;1; label: 5' biotin on strand 1; blunt
ComA [9] = biological target: T1, ComA; assay: EMSA; complex at 1.2 uM or more; affinity similar to PDR; EMSA: 10 mM HEPES pH 7.6, 2 mM MgCl2, 0.1 mM EDTA, 200 mM KCl, 5 mM DTT, 10% glycerol; 10 ng DNA in 15 ul, 20 min, room temperature; conditions: protein: recombinant; tags: N-terminal His6 (from expression primer); chain copies: 2; label: 5' biotin on strand 1; blunt

T3 sequence (P06224 whole entry, one chain of several): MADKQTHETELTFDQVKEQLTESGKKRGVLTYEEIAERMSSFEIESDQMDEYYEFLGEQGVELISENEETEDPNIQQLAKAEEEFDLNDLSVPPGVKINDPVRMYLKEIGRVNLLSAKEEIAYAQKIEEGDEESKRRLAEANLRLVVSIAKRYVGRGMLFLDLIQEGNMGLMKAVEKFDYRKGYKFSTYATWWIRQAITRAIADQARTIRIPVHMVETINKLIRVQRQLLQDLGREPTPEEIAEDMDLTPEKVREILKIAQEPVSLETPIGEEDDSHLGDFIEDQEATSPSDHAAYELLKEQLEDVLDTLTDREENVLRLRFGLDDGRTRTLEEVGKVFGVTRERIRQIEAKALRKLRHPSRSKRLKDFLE

B1: PDR n10 (dsDNA)
DNA 1: AAACTGGAATCGAAACTTTGCGGCCATTACCATTTGCGGTGATAAAAACATTTTT
DNA 2: AAAAATGTTTTTATCACCGCAAATGGTAATGGCCGCAAAGTTTCGATTCCAGTTT
Does B1 bind (ComA [1])?
Result: no binding

B2: Ppel DR3 only (dsDNA)
DNA 1: CGGCCGGTTTTTTTTTGGCTGTTCTTTGCGGTGGGATTTTGCAGAAT
DNA 2: ATTCTGCAAAATCCCACCGCAAAGAACAGCCAAAAAAAAACCGGCCG
Does B2 bind (ComA [1])?
Result: no binding

B3: PIR n14 (dsDNA)
DNA 1: ATGTTTAGTGGAAATGATTGCGGCATCTCCACATACCCCGCAAAAAATATTGCTGTAAAT
DNA 2: ATTTACAGCAATATTTTTTGCGGGGTATGTGGAGATGCCGCAATCATTTCCACTAAACAT
Does B3 bind (ComA [1])?
Result: no binding

B4: PIR n3 (dsDNA)
DNA 1: ATGTTTAGTGGAAATGATTGCGGCATCCGCAAAAAATATTGCTGTAAAT
DNA 2: ATTTACAGCAATATTTTTTGCGGATGCCGCAATCATTTCCACTAAACAT
Does B4 bind (ComA [1])?
Result: no binding

B5: PIR n1 (dsDNA)
DNA 1: ATGTTTAGTGGAAATGATTGCGGCCCGCAAAAAATATTGCTGTAAAT
DNA 2: ATTTACAGCAATATTTTTTGCGGGCCGCAATCATTTCCACTAAACAT
Does B5 bind (ComA [1])?
Result: no binding

B6: PIR n10 (dsDNA)
DNA 1: ATGTTTAGTGGAAATGATTGCGGCATCTCCACACCGCAAAAAATATTGCTGTAAAT
DNA 2: ATTTACAGCAATATTTTTTGCGGTGTGGAGATGCCGCAATCATTTCCACTAAACAT
Does B6 bind (ComA [1])?
Result: no binding

B7: PDR n9 (dsDNA)
DNA 1: AAACTGGAATCGAAACTTTGCGGCCATTACCATTGCGGTGATAAAAACATTTTT
DNA 2: AAAAATGTTTTTATCACCGCAATGGTAATGGCCGCAAAGTTTCGATTCCAGTTT
Does B7 bind (ComA [1])?
Result: no binding

B8: PDR n2 (dsDNA)
DNA 1: AAACTGGAATCGAAACTTTGCGGCCTTGCGGTGATAAAAACATTTTT
DNA 2: AAAAATGTTTTTATCACCGCAAGGCCGCAAAGTTTCGATTCCAGTTT
Does B8 bind (ComA [1])?
Result: no binding

B9: PDR n3 (dsDNA)
DNA 1: AAACTGGAATCGAAACTTTGCGGCCATTGCGGTGATAAAAACATTTTT
DNA 2: AAAAATGTTTTTATCACCGCAATGGCCGCAAAGTTTCGATTCCAGTTT
Does B9 bind (ComA [1])?
Result: no binding

B10: PDR n1 (dsDNA)
DNA 1: AAACTGGAATCGAAACTTTGCGGCTTGCGGTGATAAAAACATTTTT
DNA 2: AAAAATGTTTTTATCACCGCAAGCCGCAAAGTTTCGATTCCAGTTT
Does B10 bind (ComA [1])?
Result: no binding

B11: PDR (perfect direct repeat) (dsDNA)
DNA 1: AAACTGGAATCGAAACTTTGCGGCCATTTTGCGGTGATAAAAACATTTTT
DNA 2: AAAAATGTTTTTATCACCGCAAAATGGCCGCAAAGTTTCGATTCCAGTTT
Which results are given for B11?
binding result [2]: binds; binding result (ComA;sigma factor sigmaA [3]): binds; binding result (ComA [4]): binds

B12: PDR ex7 (RE4 T1C) (dsDNA)
DNA 1: B11 DNA 1 with T29C
DNA 2: B11 DNA 2 with A22G
B12 was tested. Which binding signal (ComA [5]) did it give?
The binding signal was about 2 fold reduced affinity.

B13: PDR G3T (dsDNA)
DNA 1: B11 DNA 1 with G31T
DNA 2: B11 DNA 2 with C20A
How did the binding signal (ComA [6]) turn out when B13 was run?
Its binding signal is about 2 fold reduced affinity.

B14: PIR (perfect inverted repeat) (dsDNA)
DNA 1: ATGTTTAGTGGAAATGATTGCGGCATCCCGCAAAAAATATTGCTGTAAAT
DNA 2: ATTTACAGCAATATTTTTTGCGGGATGCCGCAATCATTTCCACTAAACAT
Does B14 bind [7]?
Result: binds

Does B14 bind (ComA;sigma factor sigmaA [8])?
Result: binds

Does B14 bind (ComA [9])?
Result: binds

B15: PIR C4A (dsDNA)
DNA 1: B14 DNA 1 with C31A
DNA 2: B14 DNA 2 with G20T
With B15 as the binder, how does the binding signal (ComA [6]) read?
The binding signal was about 2 fold reduced affinity.

B16: PIR n8 (dsDNA)
DNA 1: ATGTTTAGTGGAAATGATTGCGGCATCTCCACCGCAAAAAATATTGCTGTAAAT
DNA 2: ATTTACAGCAATATTTTTTGCGGTGGAGATGCCGCAATCATTTCCACTAAACAT
Does B16 bind (ComA [1])?
Result: no binding

B17: Ppel DR1 only (dsDNA)
DNA 1: CGGCCTTTTGGTTTTTTTGCGGTCTGGCTGTTGGGAGTCTTTAGAAT
DNA 2: ATTCTAAAGACTCCCAACAGCCAGACCGCAAAAAAACCAAAAGGCCG
Does B17 bind (ComA [1])?
Result: no binding

B18: Ppel IR-DR core (dsDNA)
DNA 1: GGATTTTGCAGAATGCCGCAATAGGATAGCGGAACATTTTCGGTTCTG
DNA 2: CAGAACCGAAAATGTTCCGCTATCCTATTGCGGCATTCTGCAAAATCC
Does B18 bind (ComA [1])?
Result: binds

B19: PIR n2 (dsDNA)
DNA 1: ATGTTTAGTGGAAATGATTGCGGCACCGCAAAAAATATTGCTGTAAAT
DNA 2: ATTTACAGCAATATTTTTTGCGGTGCCGCAATCATTTCCACTAAACAT
Does B19 bind (ComA [1])?
Result: no binding

B20: Ppel DR2 only (dsDNA)
DNA 1: CGGCCGGTTTTTTTTTTTGCGGTCTTTGCGGTGGGAGTCTTTAGAAT
DNA 2: ATTCTAAAGACTCCCACCGCAAAGACCGCAAAAAAAAAAACCGGCCG
Does B20 bind (ComA [1])?
Result: no binding

B21: PIR n6 (dsDNA)
DNA 1: ATGTTTAGTGGAAATGATTGCGGCATCTCCCGCAAAAAATATTGCTGTAAAT
DNA 2: ATTTACAGCAATATTTTTTGCGGGAGATGCCGCAATCATTTCCACTAAACAT
Does B21 bind (ComA [1])?
Result: no binding

B22: PDR n7 (dsDNA)
DNA 1: AAACTGGAATCGAAACTTTGCGGCCATTACTTGCGGTGATAAAAACATTTTT
DNA 2: AAAAATGTTTTTATCACCGCAAGTAATGGCCGCAAAGTTTCGATTCCAGTTT
Does B22 bind (ComA [1])?
Result: no binding

B23: PDR n15 (dsDNA)
DNA 1: AAACTGGAATCGAAACTTTGCGGCCATTACCATCTACTTTGCGGTGATAAAAACATTTTT
DNA 2: AAAAATGTTTTTATCACCGCAAAGTAGATGGTAATGGCCGCAAAGTTTCGATTCCAGTTT
Does B23 bind (ComA [1])?
Result: no binding
